Assay [1] concerns the target B. subtilis S72N TRAP (trp RNA-binding attenuation protein, S72N mutant) (B. subtilis) (UniProt P19466). As to the kind of experiment: crystal structure; hanging drop vapor diffusion at 18°C; protein in 10 mM triethanolamine pH 8.0, 100 mM NaCl, 15 mM L-tryptophan, 33.5 mg/ml; six subunits in the asymmetric unit, 12-mer generated by the crystallographic 2-fold axis of P2(1)2(1)2.

For assay [2] the target is unchanged. As to the kind of experiment: native MS; nanoflow electrospray of purified S72N TRAP picked by SEC (elution volume less than 14.5 ml); methods in Text S1. In general terms: Size exclusion chromatography separates by hydrodynamic size, large species first.

Broadly, the stoichiometry N is the number of molecules, sites or subunits per partner or assembly. In the case of “B. subtilis S72N TRAP (trp RNA-binding attenuation protein, S72N mutant) (from UniProt P19466 1-71) (natural protein)”, the stoichiometry N in assay [1] and in assay [2] was 12 throughout.

The record behind these values is paper PMC3435397.
